Results from patent US20230167501.

Target: T1, PEG10 gag
T1 chain: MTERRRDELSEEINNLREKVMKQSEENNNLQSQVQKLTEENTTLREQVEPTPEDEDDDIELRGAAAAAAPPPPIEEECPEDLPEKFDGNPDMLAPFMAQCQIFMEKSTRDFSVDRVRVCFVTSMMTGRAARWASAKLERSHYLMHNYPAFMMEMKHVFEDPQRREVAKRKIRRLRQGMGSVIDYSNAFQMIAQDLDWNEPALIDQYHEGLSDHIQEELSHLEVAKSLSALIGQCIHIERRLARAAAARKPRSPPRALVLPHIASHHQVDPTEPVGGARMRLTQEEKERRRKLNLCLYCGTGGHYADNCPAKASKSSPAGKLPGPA

B1: PEG10 gag-pol (protein)
chain: MTERRRDELSEEINNLREKVMKQSEENNNLQSQVQKLTEENTTLREQVEPTPEDEDDDIELRGAAAAAAPPPPIEEECPEDLPEKFDGNPDMLAPFMAQCQIFMEKSTRDFSVDRVRVCFVTSMMTGRAARWASAKLERSHYLMHNYPAFMMEMKHVFEDPQRREVAKRKIRRLRQGMGSVIDYSNAFQMIAQDLDWNEPALIDQYHEGLSDHIQEELSHLEVAKSLSALIGQCIHIERRLARAAAARKPRSPPRALVLPHIASHHQVDPTEPVGGARMRLTQEEKERRRKLNLCLYCGTGGHYADNCPAKASKSSPAGKLPGPAVEGPSATGPEIIRSPQDDASSPHLQVMLQIHLPGRHTLFVRAMIDSGASGNFIDHEYVAQNGIPLRIKDWPILVEAIDGRPIASGPVVHETHDLIVDLGDHREVLSFDVTQSPFFPVVLGVRWLSTHDPNITWSTRSIVFDSEYCRYHCRMYSPIPPSLPPPAPQPPLYYPVDGYRVYQPVRYYYVQNVYTPVDEHVYPDHRLVDPHIEMIPGAHSIPSGHVYSLSEPEMAALRDFVARNVKDGLITPTIAPNGAQVLQVKRGWKLQVSYDCRAPNNFTIQNQYPRLSIPNLEDQAHLATYTEFVPQIPGYQTYPTYAAYPTYPVGFAWYPVGRDGQGRSLYVPVMITWNPHWYRQPPVPQYPPPQPPPPPPPPPPPPSYSTL
presence of HA-tagged cleavage products by western blot after co-transfection: PEG10 gag-pol was capable of cleaving PEG10 gag in trans
